Numbering of substitutions follows the chain as printed. In names and notes the source's numbering stands. Several values for one entry are separate records, joined by “and”; a condition that tells them apart may be missing. Identical values can stand only once.

These results are taken from publication PMC7272460, “Structural and functional evidence of bacterial antiphage protection by Thoeris defense system via NAD^+ degradation” (Nature Communications, 2020).

For data set [1], the system named is NC(=O)c1ccc[n+]([C@@H]2O[C@H](COP(=O)(O)OP(=O)(O)OC[C@H]3O[C@@H](n4cnc5c(N)ncnc54)[C@H](O)[C@@H]3O)[C@@H](O)[C@H]2O)c1. The data set can be described thus: purified protein. The class given is biochemical, Bacillus cereus. The conditions noted are these: 2.0 μM ThsA, 63 mM NaCl, 14 mM Tris-HCl pH 7.5, 25 °C.
Data set [2] deals with the molecule itself. Put plainly: SEC-MALS; Superdex 200 Increase 10/300 GL, 200 mM NaCl, 2 mM DTT, 20 mM HEPES pH 7.5, 25 °C; ThsA loaded at 11 mg/mL, ThsB at 24 mg/mL (~1 mM). A general note: Size exclusion chromatography separates by hydrodynamic size, large species first.
Data set [3] concerns the molecule itself. The data set can be described thus: SEC; analytical SEC of single ThsA proteins (wild type, N112A, H152A) to compare the oligomeric state; Superdex 200 10/300 GL, 150 mM NaCl, 1 mM DTT, 20 mM HEPES pH 7.5.
Data set [4] deals with the molecule itself. The data set can be described thus: crystal structure; ThsA crystals, sitting drop, 20 °C, 22% polypropylene glycol 400, 0.2 M MgCl2, 0.1 M MES pH 6.5; 2.5 Å; four protomers in the asymmetric unit.

For ThsA (Bacillus cereus MSX-D12), in data set [1], the Km – broadly, the concentration of substrate that gives half-maximal velocity – stood at 270 µM; the kcat (commonly the number of substrate molecules converted per active site and unit of time at saturation) came to 0.565 s⁻¹.

B1: ThsA of the Bacillus cereus MSX-D12 Thoeris defense system, wild type (enzyme)
chain: MNPIVELFIKDFTKEVMEENAAIFAGAGLSMSVGYVSWAKLLEPIAQEIGLDVNKENDLVSLAQYYCNENQGNRGRINQIILDEFSRKVDLTENHKILARLPIHTYWTTNYDRLIEKALEEENKIADVKYTVKQLATTKVKRDAVVYKMHGDVEHPSEAVLIKDDYEKYSIKMDPYIKALSGDLVSKTFLFVGFSFTDPNLDYILSRVRSAYERDQRRHYCLIKKEERRPDELEADFEYRVRKQELFISDLSRFNIKTIVLNNYNEITEILQRIENNIKTKTVFLSGSAVEYNHWETEHAEQFIHQLSKELIRKDFNIVSGFGLGVGSFVINGVLEELYMNQGTIDDDRLILRPFPQGKKGEEQWDKYRRDMITRTGVSIFLYGNKIDKGQVVKAKGVQSEFNISFEQNNYVVPVGATGYIAKDLWNKVNEEFETYYPGADARMKKLFGELNNEALSIEELINTIIEFVEILSN
notes: ThsA, Bacillus cereus MSX-D12, synthetic thsA gene in pET28a; the structure has an N-terminal sirtuin-like domain (residues 1-283) and a C-terminal SLOG-like domain (residues 284-476); The synthetic thsA gene was cloned; Predominantly a tetramer by SEC-MALS, with a trace of octamer; also called B. cereus ThsA; wild-type ThsA; source: E. coli BL21(DE3), purified (HisTrap, TEV cleavage, second …)
For B1, the stoichiometry N (commonly a count of units in the complex or per binding partner) in data set [2] is 4 and 8.

B2: ThsA N112A mutant (enzyme)
chain: B1 chain with N110A
notes: ThsA, Bacillus cereus MSX-D12, synthetic thsA gene in pET28a, point mutant made by PCR with mismatched primers; source: E. coli BL21(DE3), purified; not shown: His6, N-terminal, cleaved; MBP, N-terminal, cleaved
B2: the binding result in data set [3] is on record as “binds”.

B3: selenomethionyl ThsA of Bacillus cereus MSX-D12 (crystallised) (enzyme)
chain: B1 chain
modifications: selenomethionine at seven of eight possible Met sites
notes: ThsA, Bacillus cereus MSX-D12, synthetic thsA gene in pET28a; N-terminal sirtuin-like domain (residues 1-283) and C-terminal SLOG-like domain (residues 284-476) in the structure; Four protomers (chains A-D) in the asymmetric unit; The methods describe only selenomethionyl protein before the crystallisation; that the deposited structure is of this form is inferred; also called selenomethionyl …
For the molecule B3, the binding result in data set [4] is “binds”.
